Measurements reported in PMC8440396 (Nature cell biology, 2021).

What was measured:
Test in all cases: pull-down
Flag-ERK1 = Flag-ERK1 (human, UniProt P27361 1-379)
Flag-ERK1^K302R = Flag-ERK1^K302R (human, UniProt P27361 1-379, K302R)
Flag-TRIM15 = target: T1, Flag-TRIM15 (human, UniProt Q9C019 1-465)
T1 sequence: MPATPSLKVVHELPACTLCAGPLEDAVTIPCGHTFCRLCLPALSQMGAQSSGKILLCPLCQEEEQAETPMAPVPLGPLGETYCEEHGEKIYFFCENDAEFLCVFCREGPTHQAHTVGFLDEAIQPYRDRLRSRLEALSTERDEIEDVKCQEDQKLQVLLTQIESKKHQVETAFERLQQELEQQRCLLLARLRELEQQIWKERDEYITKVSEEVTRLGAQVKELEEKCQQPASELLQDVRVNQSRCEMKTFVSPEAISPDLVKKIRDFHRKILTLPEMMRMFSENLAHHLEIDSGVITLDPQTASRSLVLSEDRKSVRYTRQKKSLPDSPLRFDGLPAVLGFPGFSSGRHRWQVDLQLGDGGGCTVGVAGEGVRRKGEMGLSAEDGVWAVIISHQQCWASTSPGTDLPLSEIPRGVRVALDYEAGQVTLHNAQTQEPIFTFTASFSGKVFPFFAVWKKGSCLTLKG

Flag-CYLD = target: T2, Flag-CYLD (human, UniProt Q9NQC7 1-956)
T2 sequence: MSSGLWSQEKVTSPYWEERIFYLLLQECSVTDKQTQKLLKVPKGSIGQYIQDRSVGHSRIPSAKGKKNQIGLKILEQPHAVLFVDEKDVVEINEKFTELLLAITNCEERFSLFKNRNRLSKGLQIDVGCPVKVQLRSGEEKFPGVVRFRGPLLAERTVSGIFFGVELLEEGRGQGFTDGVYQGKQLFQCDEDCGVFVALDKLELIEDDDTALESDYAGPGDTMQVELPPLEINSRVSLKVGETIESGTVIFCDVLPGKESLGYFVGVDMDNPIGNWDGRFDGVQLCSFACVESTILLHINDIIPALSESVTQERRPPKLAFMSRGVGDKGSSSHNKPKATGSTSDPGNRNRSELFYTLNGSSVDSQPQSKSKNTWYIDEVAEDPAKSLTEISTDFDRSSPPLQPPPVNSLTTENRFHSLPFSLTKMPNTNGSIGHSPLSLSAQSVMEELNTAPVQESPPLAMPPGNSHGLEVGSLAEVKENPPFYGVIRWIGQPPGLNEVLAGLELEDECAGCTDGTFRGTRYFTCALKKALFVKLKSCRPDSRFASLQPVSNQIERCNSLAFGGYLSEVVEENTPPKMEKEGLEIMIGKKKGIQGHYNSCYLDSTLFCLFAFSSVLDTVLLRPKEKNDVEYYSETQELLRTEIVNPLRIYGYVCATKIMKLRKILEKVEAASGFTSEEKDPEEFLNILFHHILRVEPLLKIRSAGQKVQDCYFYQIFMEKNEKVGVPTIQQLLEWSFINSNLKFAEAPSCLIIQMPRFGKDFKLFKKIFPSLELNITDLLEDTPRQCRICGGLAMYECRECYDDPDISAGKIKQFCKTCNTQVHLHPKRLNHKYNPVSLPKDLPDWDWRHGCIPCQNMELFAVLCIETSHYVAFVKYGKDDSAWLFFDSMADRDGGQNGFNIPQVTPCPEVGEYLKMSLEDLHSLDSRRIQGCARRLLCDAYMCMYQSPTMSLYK

[1] = target: T3, Flag-CYLD^4A (K767A/K768A/L773A/L775A) (human, UniProt Q9NQC7 1-956, K767A | K768A | L773A | L775A)
T3 sequence: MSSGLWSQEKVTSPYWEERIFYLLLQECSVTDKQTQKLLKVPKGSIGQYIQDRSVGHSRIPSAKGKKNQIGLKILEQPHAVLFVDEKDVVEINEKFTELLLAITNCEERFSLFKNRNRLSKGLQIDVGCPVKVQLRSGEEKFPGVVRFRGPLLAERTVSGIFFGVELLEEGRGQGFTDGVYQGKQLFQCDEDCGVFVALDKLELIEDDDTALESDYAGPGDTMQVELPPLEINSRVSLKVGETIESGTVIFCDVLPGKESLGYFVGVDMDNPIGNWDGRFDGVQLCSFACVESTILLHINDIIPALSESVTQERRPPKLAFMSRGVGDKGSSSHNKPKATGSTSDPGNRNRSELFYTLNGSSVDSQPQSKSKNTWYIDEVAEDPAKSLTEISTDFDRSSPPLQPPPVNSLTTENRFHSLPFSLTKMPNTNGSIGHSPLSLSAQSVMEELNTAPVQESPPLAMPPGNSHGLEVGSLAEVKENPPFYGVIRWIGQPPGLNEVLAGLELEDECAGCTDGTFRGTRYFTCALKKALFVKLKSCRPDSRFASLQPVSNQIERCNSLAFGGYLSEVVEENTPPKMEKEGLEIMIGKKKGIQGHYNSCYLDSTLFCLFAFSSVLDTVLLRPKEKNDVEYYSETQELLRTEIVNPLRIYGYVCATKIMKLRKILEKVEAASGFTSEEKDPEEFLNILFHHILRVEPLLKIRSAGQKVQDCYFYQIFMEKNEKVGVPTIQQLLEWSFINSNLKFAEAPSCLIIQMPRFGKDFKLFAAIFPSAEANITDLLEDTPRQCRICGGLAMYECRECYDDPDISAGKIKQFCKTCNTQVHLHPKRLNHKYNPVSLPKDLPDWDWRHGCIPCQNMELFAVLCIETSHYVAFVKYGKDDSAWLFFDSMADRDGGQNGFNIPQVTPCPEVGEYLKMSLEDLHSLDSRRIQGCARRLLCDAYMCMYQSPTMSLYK

B1: GST-ELK-1 (aa 307-428) (domain or fragment)
chain: ISQPQKGRKPRDLELPLSPSLLGGPGPERTPGSGSGSGLQAPGPALTPSLLPTHTLTPVLLTPSSLPPSIHFWSTLSPIAPRSPAKLSFQFPSSGSAQVHIPSISVDGLSTPVVLSPGPQKP
B1: binds (Flag-ERK1); binds (Flag-ERK1^K302R).

B2: GST-ERK1 (enzyme)
chain: MAAAAAQGGGGGEPRRTEGVGPGVPGEVEMVKGQPFDVGPRYTQLQYIGEGAYGMVSSAYDHVRKTRVAIKKISPFEHQTYCQRTLREIQILLRFRHENVIGIRDILRASTLEAMRDVYIVQDLMETDLYKLLKSQQLSNDHICYFLYQILRGLKYIHSANVLHRDLKPSNLLINTTCDLKICDFGLARIADPEHDHTGFLTEYVATRWYRAPEIMLNSKGYTKSIDIWSVGCILAEMLSNRPIFPGKHYLDQLNHILGILGSPSQEDLNCIINMKARNYLQSLPSKTKVAWAKLFPKSDSKALDLLDRMLTFNPNKRITVEEALAHPYLEQYYDPTDEPVAEEPFTFAMELDDLPKERLKELIFQETARFQPGVLEAP
B2: binds (Flag-TRIM15); binds (Flag-CYLD); binds [1].
